Common to all, as to format: cell-based, human
The test system of one assay is MYC. As to the kind of experiment: Northern blot of MYC in MDAMB157 cells. Conditions: stable expression. The procedure:
(§1) Alterations in the expression of a number of genes identified as targets of canonical Wnt signaling have been reported, although it should be noted that there is variability among Wnt target genes in different cell systems (Giles et al., (2003). Biochim. Biophys. Acta 1653:1-24). To investigate the effects of FRP1 and DKK1 inhibition on gene expression in MDAMB157 breast tumor cells, Northern blot analysis was performed on representative Wnt transcriptional targets, including Myc (He et al., (1998) Science 281:1509-1512), the LEF-1 transcription factor (Filali et al., (2002) J. Biol. Chem. 277:33398-33410) and the dominant negative helix-loop-helix transcriptional regulator, Id2 (Rockman et al., (2001) J. Biol. Chem. 276:45113-45119).
(§2) Total RNAs from MDAMB157 cells exogenously expressing vector alone, FRP1, or DKK1 were extracted using Triazol (Invitrogen), separated by agarose gel electrophoresis (1% agarose gel) and transferred to a nylon membrane (Hybond, Pharmacia). Probes were labeled by the Random Prime Labelling System method (Amersham Biosciences), and hybridization was performed overnight utilizing the Hybrisol I solution (Serologicals Corporation) according to the manufacturer's instructions. Normalization was performed utilizing a commercial human GADPH control probe (BD Biosciences Clontech). Probes were labelled with α-^32P-dCTP.

The test system of assay [1] is MDAMB157 cells. As to the kind of experiment: Saturation density (cell counts) of MDAMB157 cells. Conditions: MDAMB157 over-expressing antagonist vs vector transduced parental cells. On the procedure: MDAMB157 cells exogenously expressing either vector control, FRP1 or DKK I were transferred at 1.5×10^5 cells per well in 6-well plates. Cell counts were performed in duplicate at the indicated times, and values represent the mean of two independent experiments.

For the next assay, the system named is AB589 cells. The experiment in a line: tBh-induced apoptosis (Annexin/PI FACS) in AB589 cells. On the procedure:
(§3) To assess the effects of Wnt inhibition by FRP1 or DKK1 on the response of MDAMB157 cells to apoptotic stimuli, we exposed AB589 or MDAMB157 cells expressing either vector control, FRP1 or DKK1 to increasing concentrations of tert-butyl hydroperoxide (tBh) (Sigma) a known inducer of oxidative stress that causes DNA damage through reactive oxygen species (ROS) (Macip et al., (2003) Mol. Cell. Biol. 23:8576-8585), and analyzed the apoptotic response. Sub-confluent cultures were treated with increasing amounts of tert-butyl hydroperoxide (tBH) for 2 hours. Twenty-four hours later, cells were washed in PBS, trypsinized and incubated with Annexin and PI using the Annexin-V-Fluos Staining kit (Roche). Fluorescent stained cells were subjected to FACS (Beckton Dickinson FACScan) using Cell Quest 3.2 software (Beckton Dickinson) for acquisition and analysis.

Assay [2] relates to uncomplexed β-catenin. As to the kind of experiment: Uncomplexed β-catenin in Wnt autocrine tumor cells (summary statements). Conditions: summary of the Examples. The procedure:
(§4) β-catenin levels were assessed using the GST-E-cadherin binding assay, which has been previously described (Bafico et al., (1998) Oncogene 16:2819-2825). Briefly, bacterially expressed GST-E-cadherin was purified with glutathione-Sepharose beads and incubated with 1 mg of each cell lysate. The GST-E-cadherin/[…]-catenin complex bound to the beads was recovered by centrifugation and analyzed by SDS-PAGE followed by immunoblotting. The uncomplexed β-catenin was detected using a monoclonal antibody to β-catenin (Transduction Laboratories). Unphosphorylated β-catenin was detected with a monoclonal antibody specific for β-catenin dephosphorylated at residues 27-37 (Alexis, Läufelfingen, Switzerland). FRP1-HA and DKK1-HA were detected with an anti-HA monoclonal antibody (Hybridoma Center, Mount Sinai School of Medicine, New York).

A further assay deals with keratin 18. As to the kind of experiment: RNA blot of keratin 18 in MDAMB157 cells. As to conditions: stable expression. The procedure: as §2
(§5) Since canonical Wnt signaling appears to be involved in maintaining epithelial progenitor cells of several tissues (van de Wetering et al. (2002) Cell 111:241-250; Alonso and Fuchs (2003) Genes Dev. 17:1189-1200; Reya et al. (2003) Nature 423:409-414; Polesskaya et al. (2003) Cell 113, 841-852), including the mouse mammary gland (Li et al. (2003) Proc Natl Acad Sci U.S.A. 100:15853-15858; Liu et al. (2004) Proc. Nat'l Acad. Sci. U.S.A. 101:4158-4163), we also investigated whether downregulation of Wnt signaling in MDAMB157 tumor cells affected their differentiated state. […] All of these findings provide evidence for a Wnt autocrine transforming mechanism in human tumor cells.

In another assay the test system is AB589. As to the kind of experiment: Saturation density of AB589 cells. Conditions: AB589 infected with retrovirus (data not shown).
In another assay the test system is LEF-1. The experiment in a line: Northern blot of LEF-1 in MDAMB157 cells. Conditions: stable expression. The procedure:
as §1, §2

For assay [3], the system named is MDAMB157 cells. As to the kind of experiment: tBh-induced apoptosis (Annexin/PI FACS) in MDAMB157 cells. As to conditions: each concentration of tBh, over-expression vs vector. On the procedure: as §3
The subject of the next assay is H1355. As to the kind of experiment: tBh-induced apoptosis in H1355 NSCLC cells. Conditions: H1355 NSCLC cells (data not shown). On the procedure:
as §3
We have also tested the effects of tBh on lung tumor cells with autocrine Wnt signaling in the presence or absence of the Wnt antagonists FRP and DKK. […] These findings indicate that inhibition of a Wnt autocrine signaling mechanism in tumor cells by Wnt antagonists such as FRP or DKK would make them more sensitive to the killing effects of standard chemo or irradiation therapies. We noted that levels of expression of these antagonists decreased with passage of the transfected and marker selected tumor cells.

A further assay concerns ID2. The experiment in a line: Northern blot of ID2 in MDAMB157 cells. As to conditions: stable expression. The procedure:
as §1, §2

The next assay concerns keratin 8. The experiment in a line: RNA blot of keratin 8 in MDAMB157 cells. Conditions: stable expression. On the procedure: as §2, §5
In assay [4] the test system is uncomplexed β-catenin. As to the kind of experiment: Uncomplexed β-catenin in MDAMB157 breast tumor cells. Set-up: levels of uncomplexed β-catenin: dose or concentration left out as unconfirmed. Conditions: for uncomplexed β-catenin levels: stable expression by retroviral mediated transduction. The procedure: as §4
MDAMB157 cell cultures were exposed to increasing concentrations of purified DKK1, and then were solubilized and analyzed for uncomplexed β-catenin using immunoblot analysis and an anti-[…]-catenin antibody as described in Example 3.
MDAMB157 cells were infected with vector alone, FRP1-HA (described in Example 1), or DKK1-HA (described in Example 1) retroviruses and marker selected. Uncomplexed β-catenin protein levels were analyzed using immunoblot analysis with an anti-β-catenin antibody as described in Example 3. Expression of FRP1-HA or DKK1-HA were assessed by immunblot analysis of lysates using an anti-HA monoclonal antibody (Hybridoma Center, Mount Sinai School of Medicine, New York).

Entries after “also recorded” stand apart in the source; their conditions may differ.

B1: FRP1: human secreted Frizzled Related Protein 1, Wnt antagonist; expressed from pBabe-derived retrovirus with carboxy-terminal HA tag (protein, UniProt Q8N474 32-314, looked up)
Secreted frizzled-related …: SEYDYVSFQSDIGPYQSGRFYTKPPQCVDIPADLRLCHNVGYKKMVLPNLLEHETMAEVKQQASSWVPLLNKNCHAGTQVFLCSLFAPVCLDRPIYPCRWLCEAVRDSCEPVMQFFGFYWPEMLKCDKFPEGDVCIAMTPPNATEASKPQGTTVCPPCDNELKSEAIIEHLCASEFALRMKIKEVKKENGDKKIVPKKKKPLKLGPIKKKDLKKLVLYLKNGADCPCHQLDNLSHHFLIMGRKVKSQYLLTAIHKWDKKNKEFKNFMKKMKNHECPTFQSVFK
modifications: C-terminal HA tag
notes: human secreted Frizzled Related Protein 1, Wnt antagonist; expressed from pBabe-derived retrovirus with carboxy-terminal HA tag
Consider B1, for which the “expression of MYC” value with MYC is reported as “reduced”. The saturation density result is on record as “decreased saturation density” in the assay on MDAMB157 cells [1] and “no detectable effect” in the assay on AB589. Also, the “apoptotic responses compared to the vector infected cells” value in the assay with AB589 cells is given as “no detectable differences”. Moreover, the “up regulated uncomplexed β-catenin levels” value in the assay on uncomplexed β-catenin [2] is “down regulation”. Further, the “keratin 18 levels” value in the assay on keratin 18 is “increase”. Besides, the “expression of LEF-1” value in the assay with LEF-1 was “reduced”. For the same molecule, in the assay with MDAMB157 cells [3], the level of apoptosis result was “statistically significant increase”. The “sensitivity to induction of apoptosis by tBh” value with H1355 is recorded as “more sensitive to induction of apoptosis”. Also, in the assay with ID2, the “expression of ID2” value is listed as “reduced”. Moreover, the “expression of keratin 8” value in the assay with keratin 8 is recorded as “striking increase”. Besides, in the assay with uncomplexed β-catenin [4], the “uncomplexed β-catenin levels” value was “dramatic reduction”.

B2: DKK1: Dickkopf-1, secreted Wnt antagonist protein that binds Wnt co-receptor LRP6; used purified, in conditioned media or retrovirally expressed with HA tag (protein, UniProt O94907 32-266, looked up)
Dickkopf-related protein 1: TLNSVLNSNAIKNLPPPLGGAAGHPGSAVSAAPGILYPGGNKYQTIDNYQPYPCAEDEECGTDEYCASPTRGGDAGVQICLACRKRRKRCMRHAMCCPGNYCKNGICVSSDQNHFRGEIEETITESFGNDHSTLDGYSRRTTLSSKMYHTKGQEGSVCLRSSDCASGLCCARHFWSKICKPVLKEGQVCTKHRRKGSHGLEIFQRCYCGEGLSCRIQKDHHQASNSSRLHTCQRH
modifications: HA tag in some uses
As for B2, the “expression of MYC” value with MYC is “reduced”. For the same molecule, the results for the saturation density result with MDAMB157 cells [1] and in the assay with AB589 were “decreased saturation density” and “no detectable effect”, respectively. The “apoptotic responses compared to the vector infected cells” value in the assay on AB589 cells is “no detectable differences”. Further, the “up regulated uncomplexed β-catenin levels” value in the assay with uncomplexed β-catenin [2] is “down regulation; also recorded: striking reduction”. Moreover, the “keratin 18 levels” value in the assay on keratin 18 is listed as “increase”. In addition, in the assay on LEF-1, the “expression of LEF-1” value is on record as “reduced”. The level of apoptosis entry in the assay on MDAMB157 cells [3] is given as “statistically significant increase”. In addition, the “sensitivity to induction of apoptosis by tBh” value with H1355 is listed as “more sensitive to induction of apoptosis”. The “expression of ID2” value in the assay on ID2 was “reduced”. For the same molecule, the “expression of keratin 8” value in the assay on keratin 8 is “striking increase”. Further, in the assay on uncomplexed β-catenin [4] (increasing concentrations of purified DKK1), the “levels of uncomplexed β-catenin” value was “dose dependent, marked reduction”. For the same molecule, the “uncomplexed β-catenin levels” value with uncomplexed β-catenin [4] is “dramatic reduction”.

The values are drawn from patent US8809287B2, “Compositions and methods for altering Wnt autocrine signaling” (Icahn School of Medicine at Mount Sinai, priority 2004, dated 2014).
